Data as given in doi:10.1101/2023.07.20.549859 (bioRxiv, 2023).
Where two headings read alike, the source gives them in different places.

T1: DNA polymerase alpha catalytic subunit POLA1 (334-1462) (human, UniProt P09884 334-1462)
T1 sequence (looked up): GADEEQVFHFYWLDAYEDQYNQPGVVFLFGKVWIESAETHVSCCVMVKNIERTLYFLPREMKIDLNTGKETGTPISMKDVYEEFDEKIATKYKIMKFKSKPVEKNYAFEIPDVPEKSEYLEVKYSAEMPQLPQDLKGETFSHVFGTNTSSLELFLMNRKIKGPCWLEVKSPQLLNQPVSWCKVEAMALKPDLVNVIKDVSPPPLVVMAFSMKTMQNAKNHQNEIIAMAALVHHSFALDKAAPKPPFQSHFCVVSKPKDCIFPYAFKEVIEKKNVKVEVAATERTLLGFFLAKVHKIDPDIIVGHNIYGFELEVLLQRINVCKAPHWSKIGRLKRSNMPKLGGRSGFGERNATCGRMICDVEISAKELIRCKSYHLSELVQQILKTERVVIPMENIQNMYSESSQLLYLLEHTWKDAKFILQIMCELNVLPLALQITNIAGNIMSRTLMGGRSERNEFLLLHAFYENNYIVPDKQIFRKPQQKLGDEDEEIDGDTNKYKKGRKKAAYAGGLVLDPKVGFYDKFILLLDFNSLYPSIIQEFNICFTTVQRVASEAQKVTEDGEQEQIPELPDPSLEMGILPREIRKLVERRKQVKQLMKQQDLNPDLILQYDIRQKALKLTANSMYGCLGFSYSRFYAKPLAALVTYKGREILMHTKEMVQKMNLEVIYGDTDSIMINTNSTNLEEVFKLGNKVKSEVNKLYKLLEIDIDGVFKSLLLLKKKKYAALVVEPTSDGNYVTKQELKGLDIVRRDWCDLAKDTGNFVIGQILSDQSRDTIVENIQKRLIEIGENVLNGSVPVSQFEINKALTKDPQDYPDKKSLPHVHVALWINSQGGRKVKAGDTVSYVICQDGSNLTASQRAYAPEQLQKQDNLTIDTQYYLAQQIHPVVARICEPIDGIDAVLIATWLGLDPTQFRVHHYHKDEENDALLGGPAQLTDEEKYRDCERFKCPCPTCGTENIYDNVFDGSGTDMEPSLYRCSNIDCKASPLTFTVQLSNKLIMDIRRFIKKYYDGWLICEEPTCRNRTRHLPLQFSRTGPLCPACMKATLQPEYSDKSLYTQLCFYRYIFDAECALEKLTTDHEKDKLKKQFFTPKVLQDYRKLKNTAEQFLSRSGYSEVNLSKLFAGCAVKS

B1: primase catalytic subunit PRIM1 (1-420) (enzyme, human, UniProt P49642 1-420, looked up)
chain: METFDPTELPELLKLYYRRLFPYSQYYRWLNYGGVIKNYFQHREFSFTLKDDIYIRYQSFNNQSDLEKEMQKMNPYKIDIGAVYSHRPNQHNTVKLGAFQAQEKELVFDIDMTDYDDVRRCCSSADICPKCWTLMTMAIRIIDRALKEDFGFKHRLWVYSGRRGVHCWVCDESVRKLSSAVRSGIVEYLSLVKGGQDVKKKVHLSEKIHPFIRKSINIIKKYFEEYALVNQDILENKESWDKILALVPETIHDELQQSFQKSHNSLQRWEHLKKVASRYQNNIKNDKYGPWLEWEIMLQYCFPRLDINVSKGINHLLKSPFSVHPKTGRISVPIDLQKVDQFDPFTVPTISFICRELDAISTNEEEKEENEAESDVKHRTRDYKKTSLAPYVKVFEHFLENLDKSRKGELLKKSDLQKDF
B2: DNA polymerase alpha accessory B subunit POLA2 (149-598) (domain or fragment, human, UniProt Q14181 149-598, looked up)
chain: SSFSPSATPSQKYNSRSNRGEVVTSFGLAQGVSWSGRGGAGNISLKVLGCPEALTGSYKSMFQKLPDIREVLTCKIEELGSELKEHYKIEAFTPLLAPAQEPVTLLGQIGCDSNGKLNNKSVILEGDREHSSGAQIPVDLSELKEYSLFPGQVVIMEGINTTGRKLVATKLYEGVPLPFYQPTEEDADFEQSMVLVACGPYTTSDSITYDPLLDLIAVINHDRPDVCILFGPFLDAKHEQVENCLLTSPFEDIFKQCLRTIIEGTRSSGSHLVFVPSLRDVHHEPVYPQPPFSYSDLSREDKKQVQFVSEPCSLSINGVIFGLTSTDLLFHLGAEEISSSSGTSDRFSRILKHILTQRSYYPLYPPQEDMAIDYESFYVYAQLPVTPDVLIIPSELRYFVKDVLGCVCVNPGRLTKGQVGGTFARLYLRRPAADGAERQSPCIAVQVVRI
B3: primase regulatory subunit PRIM2 (1-509) (natural protein, human, UniProt P49643 1-509, looked up)
chain: MEFSGRKWRKLRLAGDQRNASYPHCLQFYLQPPSENISLIEFENLAIDRVKLLKSVENLGVSYVKGTEQYQSKLESELRKLKFSYRENLEDEYEPRRRDHISHFILRLAYCQSEELRRWFIQQEMDLLRFRFSILPKDKIQDFLKDSQLQFEAISDEEKTLREQEIVASSPSLSGLKLGFESIYKIPFADALDLFRGRKVYLEDGFAYVPLKDIVAIILNEFRAKLSKALALTARSLPAVQSDERLQPLLNHLSHSYTGQDYSTQGNVGKISLDQIDLLSTKSFPPCMRQLHKALRENHHLRHGGRMQYGLFLKGIGLTLEQALQFWKQEFIKGKMDPDKFDKGYSYNIRHSFGKEGKRTDYTPFSCLKIILSNPPSQGDYHGCPFRHSDPELLKQKLQSYKISPGGISQILDLVKGTHYQVACQKYFEMIHNVDDCGFSLNHPNQFFCESQRILNGGKDIKKEPIQPETPQPKPSVQKTKDASSALASLNSSLEMDMEGLEDYFSEDS

What was measured:
Experiment in all cases: cryo-EM structure
[1] = target: T1, DNA polymerase alpha catalytic subunit …
[2] = target: B3
[3] = target: T1, DNA polymerase alpha catalytic subunit …; remark: listed apart in the source

binding result [1]	binding result [2]	binding result [3]	Binder
binds	binds	–	B1
binds	–	–	B2
–	–	binds	B3
